Measurements as given in the RNAGym collection of RNA variant scans (doi:10.1073/pnas.2313332121).

B1: TPR t1 (parent)
chain: GACCAAUCUGCCCUCAGAGCUCGAGAACAUCUUCGGAUGCAGAGGAGGCAGGCUUCGGUGGCGCGAUAGCGCCAACGUCCUCAACCUCCAAUGCAUCCCACCACAUGAUGAUGCCUGAAGAGCCUUGGUUUUUUG

Variants of: B1
Experiment: polymerase ribozyme fitness, log enrichment relative to wild type (log ratio); higher = more active; in vitro selection for triplet polymerase activity
How it was run: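 Streptavidin-bead capture of gel-excised extended constructs, followed by RT-PCR, closed a single triplicate in vitro selection round. That round began by annealing PCR-built, transcribed mutant libraries of each subunit of a heterodimeric triplet polymerase ribozyme with a biotinylated primer, the partner subunit and triplets, then incubating them frozen at −7 °C. After Illumina sequencing of inputs and outputs, genotypes needed ≥10 input reads and ≥1 read per output. Fitness is the base-2 logarithm of genotype enrichment over wild-type enrichment, using inverse-variance-weighted replicate averages.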

| Variant | polymerase ribozyme fitness (log ratio) |
| --- | --- |
| C49A G120U | -0.22 |
| C3U G42U | -1.55 |
| C40A C70A G93U | -1.59 |
| U21C G35A U130A | -4.76 |
| C13A G44C | -1.83 |
| A2U C3G G58A | -2.99 |
| C15U G48U A103C C123G | -6.34 |
| C73A G127C | -1.98 |
| A90G A103U A119G | -3.56 |
| A27G G58A A75G | -2.58 |
| U9A U78A G93C C124G G128C | -2.15 |
| C70A U78C | -1.85 |
| C12A A26U G44C C102U C123G | -7.51 |
| G57U U96C G110U | -2.25 |
| U32A G58A C94A | -5.83 |
| A68U U78C | -6.34 |
| C79U A91C A100U | -3.6 |
| U21G C72A A121U | 0.876 |
| C56G U87A | -1.33 |
| C3A U9G G61C G113C | -4.85 |
| A27U C72A C94A | -4.07 |

| Variant | polymerase ribozyme fitness (log ratio) |
| --- | --- |
| C12A G69U G128C | -1.9 |
| A27C C82U U96G U125A U129G | -5.35 |
| G45U A74C A108G | -3.25 |
| U7A U87A G127A | -1.5 |
| G36C C49U | -1.18 |
| A2G C40G G45U G52A C124G | -2.61 |
| G61A A83U G117C | -4.17 |
| U14A U32C C82A | -3.24 |
| U9C U81C C98A | -5.87 |
| C12U A27G C70U C88A C123G U126A | -2.52 |
| A18U G71A G120A | -3.53 |
| G17A U129A | -4.6 |
| A41C C124G | 0.528 |
| G61A G110U | -0.817 |
| G44A U55A C85G G113A | -3.2 |
| A6U U131A | 0.0258 |
| U38A C70U | -1.15 |
| C49G U116G | -2.61 |
| A37G G69U C73U U87C C104A U131G | -4.34 |
| G35U C101A C115U | -6.19 |
| C82A G110C A121U | -3.02 |

| Variant | polymerase ribozyme fitness (log ratio) |
| --- | --- |
| C70G A121U | -0.929 |
| G58U U59A A74U C88A | -0.539 |
| U7A G36C A37G C97U G113C | -3.07 |
| C8G C15U C62U C89G G93A C101U G113C C114U G127C | -4.12 |
| A43G A50G C70A C101U | -5.22 |
| C4G C8G A37U G45A U131G | -2.92 |
| G10C U96G C97U G120C G135U | -5.98 |
| C34A C72G | -3.33 |
| A27G C28U U116C U130C | -5.27 |
| C56G C72A C79U | -1.41 |
| G10A C22G G47A G60A | -3.93 |
| C4G A121C | 0.946 |
| C11A G39A A105C | -3.91 |
| G117C C123U | -4.89 |
| C22G C53U C70A G120A G128U | -4.71 |
| C98A U109A | -5.81 |
| G10C C40G C56G G77U U112C | -0.0532 |
| G52C C56A G57A C89U A91C C94U | -3.35 |
| A26U A37G C53A G120C C123A | -2.54 |
| C70G A100C C123A | -4.49 |
| U32G G35U C40U C86U A121U | -5.02 |

| Variant | polymerase ribozyme fitness (log ratio) |
| --- | --- |
| C72U A121G | 0.744 |
| G58C C72U C123G G128A | 0.86 |
| A2C C72U G117A | -3.25 |
| U9G G19C C56A G69C | -6.2 |
| C80U A84U G135C | -0.488 |
| G48U G63A G110U | -4.15 |
| A26G U112A U125A | -1.55 |
| C22U A26U A27U A41C G71C C82G A111C A118U G127C | -6.27 |
| G48U C62U | -0.185 |
| C12U C62G C85A C88U | -2.72 |
| C56G A91C G117C A119G | -1.73 |
| C82U G128C | -2.07 |
| C8A A43G C70U | -2.74 |
| G69C C85A G117C A121C | -5.54 |
| U30A A95G A121U | -3.78 |
| G60C C94U | -0.143 |
| G44C U106G G110A A119G | -4.41 |
| A6U C15A U21G G58A A90G U112C G127A | -4.37 |
| A2G C11G G42A C89G | -4.87 |
| U7C G61A U87G | 0.298 |
| U7A U112A | 1.69 |
